Measurements from article PMC11320570 (ACS Infectious Diseases, 2024).

How the values were obtained:
[1] = target: deglycosylated EDIII WT Fc-fusion antigen (Dengue virus type 2, strain 16681, UniProt P29990); experiment: ELISA; settings: both partners purified
[2] = target: DENV-2 EDIII wild-type Fc-fusion antigen (Dengue virus type 2, strain 16681, UniProt P29990); experiment: ELISA; settings: both partners purified

B1: 3H5 mouse antibody (antibody, V domains shown)
VH: QVQLQQSGAEVARPGASVKLSCKASGYTFTSYWLQWVKQRPGQGLEWIGAIWPGDDDTRYAQKFQGKATMTADKSSSTAYIQLSNLASEDSAVYYCARKGGFAMDYWGQGTSVTVSS
VL: NIVMTQSPTSLAVSLGQRATISCRASESVDSFGKSFMHFYQQKPGQPPKLLIHLASNLESGVPARFTGRGSRTDFTLTIDPVEADDAATYYCQQNNEVPFTFGSGTKLEVK
What does the source list for B1?
binding result [1]: binds; binding result [2]: binds

B2: 2C8 mouse antibody (antibody, V domains shown)
VH: EVKLVESGGGLVQPGGSLSLSCAASGFTFTDYYMTWVRQPPGKALEWLALIRNKASGYTTEYSASVKGRFTISRDNSQSILYLQMNALRAEDSATYYCTRAKWDGHYFDYWGQGTTLTVSS
VL: DIQMTQSPASLSVSVGETVTITCRATKNIYNNLAWYQQKQGRSPQLLVYAATNLADGVPSRFSGSGSGTQFSLRINSLQSEDFGNYYCQHFWHTPWTFGGGTKLEIK
notes: Mouse IgG2a; source: hybridoma culture supernatant, purified (HiTrap protein-G HP)
Does B2 bind [2]?
Result: binds

B3: 513 engineered and humanized antibody (antibody, V domains shown)
VH: QVQLVQSGAEVKKPGASVKVSCKAGFNIKDVYMSWVRQAPEQGLEWMGRIDPENGDTKYDPKLQGRVTMTADTSTNTAYMELRSLRSDDTAVYYCARGWEGFAYWGQGTLVTVSS
VL: DIVMTQSPASLAVSLGQRATISCRASENVDKYGNSFMHWYQQKPGQPPKLLIYRASELQWGVPDRFSGSGSGTDFTLTISSLQAEDVAVYYCQRSNEVPWTFGQGTKLEIK
Does B3 bind [2]?
Result: binds
